Data on 1 substance can be found in patent US20090004190A1, “Rage Fusion Proteins And Methods Of Use” (priority 2006, published 2009).

Where only a bound is given, the exact number is not on record here.

The assay has as its target Fc receptor on THP-1 cells. Briefly: cell-based or functional assay.

For “human IgG1 (heat aggregated, coated on wells) (antibody)”, the TNF secreted by THP-1 cells in wells coated with 10 µg/well heat aggregated protein (ELISA, 24 h) was above 40 ng/well.
